From the RNAGym collection of RNA variant scans (doi:10.7554/elife.80360) come the findings set out here.

The labels stand for the following.
B1: CPEB3 Ribozyme (parent)
chain: GGGGGCCACAGCAGAAGCGUUCACGUCGCGGCCCCUGUCAGAUUCUGGUGAAUCUGCGAAUUCUGCUGU

In this data set the parent is B1. Briefly: self-cleavage, relative activity (ratio to wild type); higher = more cleavage; co-transcriptional.
For GGGAGCCACAGCAGAAGCGUUCACGUCGCGGCCCCUGUCAGAUUCUGGUGAAUCUGCGAAUUCUGCUUU [G4A G68U], the self-cleavage was found to be 0.978.
As for GGGAGCCACAGCAGAAGCGUUCACGUCGCGGCCCCUGGCAGAUUCUGGUGAAUCUGCGAAUUCUGCUGU [G4A U38G], the self-cleavage came out at 0.107.
On to GGGAGCCACAGCAGAAGCGUUCACGUCGCGGCCCCUGACAGAUUCUGGUGAAUCUGCGAAUUCUGCUGU [G4A U38A], for which the self-cleavage was determined as 0.761.
For GGGAGCCACAGCAGAAGCGUUCACGUCGCGGCCCCUGUCAGAUUCUGGUGAAUCUUCGAAUUCUGCUGU [G4A G56U], the self-cleavage came out at 0.744.
Regarding GGGAGCCACAGCAGAAGCGUUCACGUCGCGGCCCCUGUCAGAUUCUGGUGAAUCUCCGAAUUCUGCUGU [G4A G56C], the self-cleavage amounted to 0.456.
In the case of GGGAGCCACAGCAGAAGCGUUCACGUCGCGGCCCCUGUCAGAUACUGGUGAAUCUGCGAAUUCUGCUGU [G4A U44A], the self-cleavage is 0.646.
Take GGGAGCCACAGCAGAAGCGUUCACGUCGCGGCCCCUGUCAGAUCCUGGUGAAUCUGCGAAUUCUGCUGU [G4A U44C]: the self-cleavage was found to be 0.679.
The same measure for GGGAGCCACAGCAGAAGCGUUCACGUCGCGGCCCCUGUCAGAUGCUGGUGAAUCUGCGAAUUCUGCUGU [G4A U44G]: 0.558; for GGGAGCCACAGCAGAAGCGUUCACGUCGCGGCCCCUGUCAGAUUCUGAUGAAUCUGCGAAUUCUGCUGU [G4A G48A]: 0.92; for GGGAGCCACAGCAGAAGCGUCCACGUCGCGGCCCCUGUCAGAUUCUGGUGAAUCUGCGAAUUCUGCUGU [G4A U21C]: 0.465.
For the variant GGGAGCCACAGCAGAAGCGUGCACGUCGCGGCCCCUGUCAGAUUCUGGUGAAUCUGCGAAUUCUGCUGU [G4A U21G], the self-cleavage was determined as 0.253.
With GGGCGCCACAGCAGAAGCGUUCACGUCGCGGCCCCUGUCAGAUUCUGGUGAAUCUGCGUAUUCUGCUGU [G4C A59U], the self-cleavage is 0.203.
With GGGCGCCACAGCAGAAGCGUUCACGUCGCGGCCCCUGUCAGAUUCUGGUGAAUCUGCGGAUUCUGCUGU [G4C A59G], the self-cleavage came out at 0.37.
For GGGAGCCACAGCAGAAGCGAUCACGUCGCGGCCCCUGUCAGAUUCUGGUGAAUCUGCGAAUUCUGCUGU [G4A U20A], the self-cleavage turned out to be 0.23.
With GGGAGCCACAGCAGAAGCGGUCACGUCGCGGCCCCUGUCAGAUUCUGGUGAAUCUGCGAAUUCUGCUGU [G4A U20G], the self-cleavage was found to be 0.0767.
For GGGCGCCCCAGCAGAAGCGUUCACGUCGCGGCCCCUGUCAGAUUCUGGUGAAUCUGCGAAUUCUGCUGU [G4C A8C], the self-cleavage was determined as 0.578.
GGGCGCCUCAGCAGAAGCGUUCACGUCGCGGCCCCUGUCAGAUUCUGGUGAAUCUGCGAAUUCUGCUGU [G4C A8U]: the self-cleavage came to 0.617.
Regarding GGGCGCCGCAGCAGAAGCGUUCACGUCGCGGCCCCUGUCAGAUUCUGGUGAAUCUGCGAAUUCUGCUGU [G4C A8G], the self-cleavage was found to be 0.545.
For GGGAGCCACAGCAGAAGCGUUCACGUCGCGGCCCCUGUCAGACUCUGGUGAAUCUGCGAAUUCUGCUGU [G4A U43C], the self-cleavage was 0.651.
For GGGAGCCACAGCAGAAGCGUUCACGUCGCGGCCCCUGUCAGAAUCUGGUGAAUCUGCGAAUUCUGCUGU [G4A U43A], the self-cleavage is 0.683.
With GGGAGCCACAGCAGAAGCGUUCACGUCGCGGCCCCUGUCAGAGUCUGGUGAAUCUGCGAAUUCUGCUGU [G4A U43G], the self-cleavage amounted to 0.511.
Turning to GGGCGCCACAGCAGAAGCGUUCACGUCGCGGCCCCUGUCAGCUUCUGGUGAAUCUGCGAAUUCUGCUGU [G4C A42C], the self-cleavage amounted to 0.237.
With GGGCGCCACAGCAGAAGCGUUCACGUCGCGGCCCCUGUCAGUUUCUGGUGAAUCUGCGAAUUCUGCUGU [G4C A42U], the self-cleavage came to 0.354.
For GGGAGCCACAGCAGAAGCGUUCACGUCGCGGCCCCUGUCAGAUUCUGGUGAAUCGGCGAAUUCUGCUGU [G4A U55G], the self-cleavage was 0.52.
The same measure for GGGAGCCACAGCAGAAGCGUUCACGUCGCGGCCCCGGUCAGAUUCUGGUGAAUCUGCGAAUUCUGCUGU [G4A U36G]: 0.424; for GGGAGCCACAGCAGAAGCGUUCACGUCGCGGCCCCCGUCAGAUUCUGGUGAAUCUGCGAAUUCUGCUGU [G4A U36C]: 0.792.
For the variant GGGAGCCACAGCAGAAGCGUUCACGCCGCGGCCCCUGUCAGAUUCUGGUGAAUCUGCGAAUUCUGCUGU [G4A U26C], the self-cleavage was determined as 0.827.
Regarding GGGCGCCACAGCAGAAGCGUUCACGUCGCGGCCCCUGUCUGAUUCUGGUGAAUCUGCGAAUUCUGCUGU [G4C A40U], the self-cleavage was 0.228.
On to GGGCGCCACAGCAGAAGCGUUCACGUCGCGGCCCCUGUCCGAUUCUGGUGAAUCUGCGAAUUCUGCUGU [G4C A40C], for which the self-cleavage stood at 0.202.
For GGGCGCCACAGCAGAAGCGUUCACGUCGCGGCCCCUGUCGGAUUCUGGUGAAUCUGCGAAUUCUGCUGU [G4C A40G], the self-cleavage was 0.526.
Regarding GGGAGCCACAGCAGAAGCGUUCACGUCGCGGCCCCUGUCAGAUUCUGGUCAAUCUGCGAAUUCUGCUGU [G4A G50C], the self-cleavage was found to be 0.808.
Turning to GGGAGCCACAGCAGAAGCGUUCACGUCGCGGCCCCUGUCAGAUUCUGGUUAAUCUGCGAAUUCUGCUGU [G4A G50U], the self-cleavage is 0.849.
Then GGGAGCCACAGCAGAAGCGUUCACGUCGCGGCCCCUGUCAGAUUCUGGUAAAUCUGCGAAUUCUGCUGU [G4A G50A], with 0.839; and GGGCGCCACAGCAGAGGCGUUCACGUCGCGGCCCCUGUCAGAUUCUGGUGAAUCUGCGAAUUCUGCUGU [G4C A16G], with 0.122; and GGGAGCCACAGCAGAAGCGUUCACGUCGCGGCCCCUGUCAAAUUCUGGUGAAUCUGCGAAUUCUGCUGU [G4A G41A], with 0.506.
GGGAGCCACAGCAGAAGCGUUCACGUCGCGGCCCCUGUCAGAUUCUGGUGAACCUGCGAAUUCUGCUGU [G4A U53C]: the self-cleavage worked out at 0.617.
Then GGGCGCCACUGCAGAAGCGUUCACGUCGCGGCCCCUGUCAGAUUCUGGUGAAUCUGCGAAUUCUGCUGU [G4C A10U], with 0.802; and GGGAGCCACAGCAGAAGCGUUCACGUCUCGGCCCCUGUCAGAUUCUGGUGAAUCUGCGAAUUCUGCUGU [G4A G28U], with 0.127.
As for GGGAGCCACAGCAGAAGCGUUCACGUCCCGGCCCCUGUCAGAUUCUGGUGAAUCUGCGAAUUCUGCUGU [G4A G28C], the self-cleavage came out at 0.162.
